Legend:
[1] = molecular target: CuV VP2 (CuV capsid, virus-like particle) (Cutavirus, UniProt A0A1B0VEZ1); experiment: glycan microarray (CFG v5.[…]), DyLight 488-labelled VLPs; format: binding; settings: immobilised glycan; PBS/Tween-20, room temperature; weak signal, authors advise caution
[2] = molecular target: Cutavirus (CuV) VP2, assembled as virus-like particles (cutavirus (CuV)); experiment: cryo-EM structure
[3] = molecular target: Tusavirus (TuV) VP2, assembled as virus-like particles (tusavirus (TuV)); experiment: cryo-EM structure

How did the “glycan microarray (CFG v5.2), DyLight 488-labelled VLPs” value [1] turn out when CC(=O)N[C@H]1C(O)O[C@H](CO)[C@@H](O[C@@H]2O[C@H](CO)[C@H](O)[C@H](O)[C@H]2O)[C@@H]1O[C@@H]1O[C@@H](C)[C@@H](O)[C@@H](O)[C@@H]1O (stereo partly drawn) [LeX] was run?
The value was “the minimal LeX motif was weakly bound by CuV”.

How did the stoichiometry N [2] turn out when “Cutavirus (CuV) VP2, assembled as virus-like particles (natural protein)” was run?
The stoichiometry N was 60.

How did the stoichiometry N [3] turn out when “Tusavirus (TuV) VP2, assembled as virus-like particles (natural protein)” was run?
The stoichiometry N was 60.

Source: paper PMC7354515 (Viruses, 2020)
